This is an account of results in article PMC8897395 (Nature Communications, 2022).

This data set deals with the molecule itself. As to the kind of experiment: […], in Tris-HCl buffer (10 mM Tris-HCl pH 8.0, 150 mM NaCl, 1 mM EDTA); […].

B1: MARV nucleoprotein (1–395), wild type (domain or fragment)
chain: MDLHSLLELGTKPTAPHVRNKKVILFDTNHQVSICNQIIDAINSGIDLGDLLEGGLLTLCVEHYYNSDKDKFNTSPVAKYLRDAGYEFDVIKNADATRFLDVSPNEPHYSPLILALKTLESTESQRGRIGLFLSFCSLFLPKLVVGDRASIEKALRQVTVHQEQGIVTYPNHWLTTGHMKVIFGILRSSFILKFVLIHQGVNLVTGHDAYDSIISNSVGQTRFSGLLIVKTVLEFILQKTDSGVTLHPLVRTSKVKNEVASFKQALSNLARHGEYAPFARVLNLSGINNLEHGLYPQLSAIALGVATAHGSTLAGVNVGEQYQQLREAAHDAEVKLQRRHEHQEIQAIAEDDEERKILEQFHLQKTEITHSQTLAVLSQKREKLARLAAEIENNI
In the case of B1, the binding result is reported as “binds”.
